Source: US20220282268A1 (UNIVERSITY COURT OF THE UNIVERSITY OF EDINBURGH, published 2022)

What was measured:
[1] = biological target: the molecule itself; assay: yeast two-hybrid, EPYC1 in both the binding domain and the activation domain vector
Protocol: (§1) Competent yeast cells (Y2H Gold, Clontech) were prepared from a 50 ml culture grown in YPDA medium supplemented with kanamycin (50 μg ml⁻¹). Cells were washed with ddH2O and a lithium acetate/TE solution (100 mM LiAc, 10 mM Tris-HCl [pH 7.5], 1 mM EDTA) before re-suspending in lithium acetate/TE solution. Cells were then co-transformed with binding and activation domain vectors by mixing 50 μl of competent cells with 1 μg of each plasmid vector and a PEG solution (100 mM LiAc, 10 mM Tris-HCl [pH 7.5], 1 mM EDTA, 40% [v/v] PEG 4000). Cells were incubated at 30° C. for 30 min, then subjected to a heat shock of 42° C. for 20 min. The cells were centrifuged, re-suspended in 500 μl YPDA and incubated at 30° C. for ca 90 min, then centrifuged and washed in TE (10 mM Tris-HCl [pH 7.5], 1 mM EDTA). […] The following day 1 ml of culture was harvested, cell density (OD₆₀₀) measured, centrifuged and then diluted in TE to give a final OD₆₀₀ of 0.5 or 0.1.
(§2) Yeast cultures were then plated onto SD-L-W (yeast synthetic minimal media lacking leucine (L) and tryptophan (W)) and SD-L-W-H (yeast synthetic minimal media lacking L, W, and histidine(H)) (Anachem). […] These plates were then incubated for 3 days before assessing for presence or absence of growth, to perform a semi-quantitative yeast two-hybrid assay as in van Nues and Beggs (van Nues and Beggs, Genetics (2000) 157: 1451-1467). […]

[2] = biological target: T1, 1AAtMOD (α-helices, β-sheets and loop): A. thaliana SSU 1A with α-helices, β-sheets and βA-βB loop replaced … (Arabidopsis thaliana with parts of …); assay: yeast two-hybrid (FIG. 3C)
T1 construct: also called 1AAtMod (α-helices, β-sheet and loop); pGADT7_1AAtMOD(α-helices + β-sheets + loop)
T1 chain: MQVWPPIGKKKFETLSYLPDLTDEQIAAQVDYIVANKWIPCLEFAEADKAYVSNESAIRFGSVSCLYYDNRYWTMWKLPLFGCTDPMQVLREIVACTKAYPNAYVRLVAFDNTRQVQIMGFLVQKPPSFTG
Protocol: (§3) The following day 1 ml of culture was harvested, cell density (OD₆₀₀) measured, centrifuged and then diluted in TE to give a final OD₆₀₀ of 0.5 or 0.1.
(§4) Yeast cultures were then plated onto SD-L-W (yeast synthetic minimal media lacking leucine (L) and tryptophan (W)) and SD-L-W-H (yeast synthetic minimal media lacking L, W, and histidine(H)) (Anachem). Yeast expressing both binding and activation domain constructs was grown on SD-L-W to confirm presence of both plasmids. To assess interaction strength, yeast was plated onto SD-L-W-H with differing concentrations of the HIS3 inhibitor 3-aminotriazole (3-AT). These plates were then incubated for 3 days before assessing for presence or absence of growth, to perform a semi-quantitative yeast two-hybrid assay as in van Nues and Beggs (van Nues and Beggs, Genetics (2000) 157: 1451-1467). The same yeast transformation was used for each interaction study. Different colonies on the same yeast transformation plate were considered independent biological replicates (as for E. coli). Two biological replicates (top and bottom row for each interaction) were spotted from different liquid culture concentrations (0.5 and 0.1 OD). Each interaction experiment was performed at least twice.
(§5) Interactions were only observed between EPYC1 and chimeric 1AAt with the two α-helices from the C. reinhardtii SSU (FIG. 3C). The S1Cr 1AAt with the S1Cr α-helices alone produced a minimal interaction (i.e., on 0 mM 3-AT), which was strengthened by the incorporation of the β-sheets and the βA-βB loop from S1Cr.

[3] = biological target: T2, 1AAtMOD (α-helices and β-sheets): A. thaliana SSU 1A with α-helices and β-sheets replaced with those of C. … (Arabidopsis thaliana with parts of …); assay: yeast two-hybrid (FIG. 3C)
T2 construct: also called pGADT7_1AAtMOD(α-helices + β-sheets)
T2 chain: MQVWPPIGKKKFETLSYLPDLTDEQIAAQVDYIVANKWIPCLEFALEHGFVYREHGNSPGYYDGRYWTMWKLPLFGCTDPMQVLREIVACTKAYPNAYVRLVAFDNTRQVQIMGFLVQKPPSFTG
Protocol: as §3, §4, §5

[4] = biological target: T3, 1AAtMOD (β-sheets): A. thaliana SSU 1A with β-sheets replaced with C. reinhardtii β-sheets (Arabidopsis thaliana with parts of …); assay: yeast two-hybrid (FIG. 3C)
T3 construct: also called pGADT7_1AAtMOD(β-sheets)
T3 chain: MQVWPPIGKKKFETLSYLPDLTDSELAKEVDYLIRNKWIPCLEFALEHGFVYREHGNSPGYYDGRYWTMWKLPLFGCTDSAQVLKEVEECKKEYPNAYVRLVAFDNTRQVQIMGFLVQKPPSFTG
Protocol: as §3, §4, §5

[5] = biological target: T4, 1AAtMOD (β-sheets and loop): A. thaliana SSU 1A with β-sheets and βA-βB loop replaced with those of C. … (Arabidopsis thaliana with parts of …); assay: yeast two-hybrid (FIG. 3C)
T4 construct: also called 1AAtMod (β-sheet and loop); pGADT7_1AAtMOD(β-sheets + loop)
T4 chain: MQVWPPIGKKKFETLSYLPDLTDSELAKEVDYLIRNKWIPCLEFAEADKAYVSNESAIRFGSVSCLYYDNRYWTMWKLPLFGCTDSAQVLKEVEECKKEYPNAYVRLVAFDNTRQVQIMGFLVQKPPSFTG
Protocol: as §3, §4, §5

[6] = biological target: T5, 1AAtMOD (loop): A. thaliana SSU 1A with βA-βB loop replaced with C. reinhardtii βA-βB loop (Arabidopsis thaliana with parts of …); assay: yeast two-hybrid (FIG. 3C)
T5 construct: also called pGADT7_1AAtMOD(loop)
T5 chain: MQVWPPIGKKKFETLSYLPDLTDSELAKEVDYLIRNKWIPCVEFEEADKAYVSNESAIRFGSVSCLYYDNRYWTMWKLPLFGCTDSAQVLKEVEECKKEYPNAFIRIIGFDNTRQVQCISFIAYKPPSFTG
Protocol: as §3, §4, §5

[7] = biological target: T6, A. thaliana CP12-2 (AtCP12) (Arabidopsis thaliana, UniProt Q9LZP9 54-131, limits assumed); assay: yeast two-hybrid
T6 construct: also called AT3G62410; pGADT7_CP12
T6 sequence (looked up): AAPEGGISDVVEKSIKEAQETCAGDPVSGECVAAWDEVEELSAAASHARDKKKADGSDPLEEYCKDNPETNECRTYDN
Protocol: as §1, §2

[8] = biological target: A. thaliana Rubisco small subunit 1A (1AAt), mature (Arabidopsis thaliana, UniProt P10795 56-180); assay: yeast two-hybrid, growth on SD-L-W-H with 3-AT
Protocol: as §1, §2

B1: Essential Pyrenoid Component 1 (EPYC1), full-length, C. reinhardtii (other)
chain: MATISSMRVGAASRVVVSGRVKTVKVAARGSWRESSTATVQASRASSATNRVSPTRSVLPANWRQELESLRNGNGSSSAASSAPAPARSSSASWRDAAPASSAPARSSSASKKAVTPSRSALPSNWKQELESLRSSSPAPASSAPAPARSSSASWRDAAPASSAPARSSSSKKAVTPSRSALPSNWKQELESLRSSSPAPASSAPAPARSSSASWRDAAPASSAPARSSSASKKAVTPSRSALPSNWKQELESLRSNSPAPASSAPAPARSSSASWRDAPASSSSSSADKAGTNPWTGKSKPEIKRTALPADWRKGL
notes: also called Cre10.g436550.t1.2; pGBKT7_EPYC1
[1]
  binding result: no binding
[2]
  binding result: binds
[3]
  binding result: binds
[4]
  binding result: no binding
[5]
  binding result: no binding
[6]
  binding result: no binding
[7]
  binding result: no binding
[8]
  binding result: no binding
